The results in this text go back to patent publication US20220177583A1 (University of California, published 2022).

Test [1] has as its target T1, human CLDN6, endogenously expressed on cancer cell lines (human, UniProt P56747 1-220).
T1 construct: also called Endogenous CLDN6+; CLDN6 on ARK2, OVCA429, UMUC4 cells
T1 sequence: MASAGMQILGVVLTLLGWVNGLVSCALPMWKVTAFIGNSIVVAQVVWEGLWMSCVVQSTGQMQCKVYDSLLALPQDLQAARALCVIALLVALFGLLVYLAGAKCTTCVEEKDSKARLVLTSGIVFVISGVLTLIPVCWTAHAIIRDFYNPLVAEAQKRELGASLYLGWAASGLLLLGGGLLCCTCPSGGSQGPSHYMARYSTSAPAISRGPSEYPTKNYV
Nature of the test: FACS, ARK2 cells, 0.3 ug Ab. For orientation: In flow cytometry, cells or beads pass a laser one at a time.

For test [2], the target named is T1, human CLDN6, endogenously expressed on …. Briefly: FACS, ARK2 cells, 1.5 ug Ab.
The target is the same in test [3]. Nature of the test: FACS, OVCA429 cells, 1.5 ug Ab.
Test [4] concerns the target T2, mouse CLDN6 fused to GFP, expressed on engineered HEK293T cells (mouse, UniProt Q9Z262 1-219).
T2 construct: whole, on cells; also called HEK293T-CLDN6-mGFP Artificial CLDN6+ (mouse); murine CLDN6; not shown: GFP tag
T2 sequence (looked up): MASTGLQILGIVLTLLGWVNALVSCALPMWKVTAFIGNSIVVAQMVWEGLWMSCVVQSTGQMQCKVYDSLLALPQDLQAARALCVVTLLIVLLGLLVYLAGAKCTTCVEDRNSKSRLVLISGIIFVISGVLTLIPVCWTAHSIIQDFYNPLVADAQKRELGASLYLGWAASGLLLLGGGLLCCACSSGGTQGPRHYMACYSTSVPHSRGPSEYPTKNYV
Briefly: FACS, 293T clone with mouse CLDN6.

B1: AB18-3 (antibody, V domains shown)
VH: QVQLVQSGAEVKKPGASVKVSCKASGYSFTGYNMNWVRQAPGQGLEWMGNIDPYYGGSTYAQKFQGRVTMTVDTSTSTVYMELSSLRSEDTAVYYCARERSGYVFSAMDYWGQGTLVTVSS
VL: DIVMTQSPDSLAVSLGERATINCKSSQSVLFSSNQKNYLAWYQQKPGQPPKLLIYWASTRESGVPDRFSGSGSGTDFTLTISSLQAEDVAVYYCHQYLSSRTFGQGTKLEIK
notes: Humanized; full-length IgG; also called humanized AB 18-3
As for B1, the FACS signal in test [1] was determined as 1080; in test [2], 1210; in test [3] it was 2700.

B2: AB18-4 (antibody, V domains shown)
VH: QVQLVQSGAEVKKPGASVKVSCKASGYSFTGYNMNWVRQAPGQGLEWMGNIDPYYGGSTYAQKFQGRVTMTVDTSTSTVYMELSSLRSEDTAVYYCARERSGYVFSAMDYWGQGTLVTVSS
VL: DIVMTQSPDSLAVSLGERVTMNCKSSQSVLFSSNQKNYLAWYQQKPGQPPKLLIYWASTRESGVPDRFSGSGSGTDFTLTISSVQAEDVAVYYCHQYLSSRTFGQGTKLEIK
notes: Humanized; also called humanized AB 18-4
Turning to B2, the FACS signal in test [1] worked out at 1130; in test [2] it was 1380; in test [3], 3220.

B3: AB18-chim (antibody, V domains shown)
VH: QVQLKQSGPELEKPGASVKISCKASGYSFTGYNMNWVKQSNGKSLEWIGNIDPYYGGSTYNQKFTGKATLTVDKSSSTAYMQLKSLTSEDSAVYYCARERSGYVFSAMDYWGQGTSVTVSS
VL: NIMMTQSPSSLAVSAGEKVTMSCKSSQSVLFSSNQKNYLAWYQQKPGQSPRLLIYWASTRESGVPDRFTGSGSGTDFTLTISNVQAEDLAVYYCHQYLSSRTFGAGTKLELK
notes: Parental antibody prior to humanization ('chim'); also called pre-humanized form of AB18
Take B3: the FACS signal in test [1] is 3440; in test [2] it was 9150; in test [3], 25500.

B4: AB1-11 (antibody, V domains shown)
VH: QVQLVQSGAEVKKPGASVKMSCKASGYTFTTYTMHWVRQAPGQGLEWIGFINPSSGYTDYAQKFQGRVTLTADKSTSTVYMELSSLRSEDTAVYYCANGDYYVAYWGQGTLVTVSS
VL: DIQLTQSPSSLSASVGDRVTMTCTASSSVSSTYFHWYQQKPGKAPKLWIYSTSNLASGVPSRFSGSGSGTDYTLTISSMQPEDAATYYCHQYHRSPLTFGQGTKLEIK
notes: Humanized; also called humanized AB1-11; HU-11
On to B4, for which the FACS signal in test [1] is 53900; in test [2], 97700; in test [4], 101000.

B5: AB9-3 (antibody, V domains shown)
VH: QVQLVQSGAEVKKPGASVKMSCKASGYRFTDYNMHWVRQAPGQGLEWIGYINPNNGGTNYAQKFQGRATLTVDTSTSTAYMELSSLRSEDTAVYYCARDYLYFFDCWGQGTLLTVSS
VL: DIQMTQSPSSLSASVGDRVTITCLASQTIGTWLAWYQQKPGKAPKLLIYAAASLADGVPSRFSGSGSGTDFTFTISSLQPEDFVTYYCQQLYSIPRTFGQGTKLEIK
notes: Humanized; also called humanized AB 9-3
With B5, the values for the FACS signal in test [1], in test [2] and in test [3] were 1140, 1470 and 1260, respectively.

B6: AB4-6 (antibody, V domains shown)
VH: QVQLVQSGAEVKKPGASVKMSCKASGYTFTSYTMHWIRQAPGQGLEWIGYINPSSTYTHYAQKFQGRATLTADKSTSTAYMELSSLRSEDTAVYYCSRGELGGFAYWGQGTLVTVSS
VL: DVVMTQSPLSLPVTLGQPASISCRSSQSLVHSDGNTYLNWYQQRPGQSPRLLIYKVSNRFSGVPDRFSGSGSGTDFTLKISRVEAEDVGVYYCSQSTHVPYTFGQGTKLEIK
notes: Humanized; also called humanized AB 4-6
Consider B6, for which the FACS signal in test [1] stood at 3300; in test [2], 9840; in test [4], 14200.

B7: AB4-12 (antibody, V domains shown)
VH: QVQLVQSGAEVKKPGASVKMSCKASGYTFTSYTMHWIRQAPGQGQEWIGYINPSSTYTHYIKKFKDRATLTADKSTSTAYMELSSLRSEDTAVYYCSRGELGGFAYWGQGTLVTVSS
VL: DVVMTQSPLSLPVTLGQPASISCRSSQSLVHSDGNTYLNWYQQRPGQSPRLLIYKVSNRFSGVPDRFSGSGSGTDFTLKISRVEAEDVGVYYCSQSTHVPYTFGQGTKLEIK
notes: Humanized; full-length IgG; see note of AB4-8; also called humanized AB 4-12
Consider B7, for which the FACS signal stood at 9690 in test [1], 24200 in test [2] and 1130 in test [4].

B8: AB4-10 (antibody, V domains shown)
VH: QVQLVQSGAEVKKPGASVKMSCKASGYTFTSYTMHWIRQAPGQGQEWIGYINPSSTYTHYIKKFKDRATLTADTSTSTAYMELSSLRSEDTAVYYCSRGELGGFAYWGQGTLVTVSS
VL: DVVMTQSPLSLPVTLGQPASISCRSSQSLVHSDGNTYLNWYQQRPGQSPRLLIYKVSNRFSGVPDRFSGSGSGTDFTLKISRVEAEDVGVYYCSQSTHVPYTFGQGTKLEIK
notes: Humanized; full-length IgG; see note of AB4-8; also called humanized AB 4-10
Take B8: the FACS signal in test [1] came to 7210; in test [2], 20200; in test [4], 2650.

B9: AB4-9 (antibody, V domains shown)
VH: QVQLVQSGAEVKKPGASVKMSCKASGYTFTSYTMHWIRQAPGQGLEWIGYINPSSTYTHYIKKFKDRATLTADTSTSTAYMELSSLRSEDTAVYYCSRGELGGFAYWGQGTLVTVSS
VL: DVVMTQSPLSLPVTLGQPASISCRSSQSLVHSDGNTYLNWYQQRPGQSPRLLIYKVSNRFSGVPDRFSGSGSGTDFTLKISRVEAEDVGVYYCSQSTHVPYTFGQGTKLEIK
notes: Humanized; full-length IgG; see note of AB4-8; also called humanized AB 4-9
Turning to B9, the FACS signal in test [1] is 3060; in test [2], 7790; in test [4] it was 1780.

B10: AB4-11 (antibody, V domains shown)
VH: QVQLVQSGAEVKKPGASVKMSCKASGYTFTSYTMHWIRQAPGQGLEWIGYINPSSTYTHYIKKFKDRATLTADKSTSTAYMELSSLRSEDTAVYYCSRGELGGFAYWGQGTLVTVSS
VL: DVVMTQSPLSLPVTLGQPASISCRSSQSLVHSDGNTYLNWYQQRPGQSPRLLIYKVSNRFSGVPDRFSGSGSGTDFTLKISRVEAEDVGVYYCSQSTHVPYTFGQGTKLEIK
notes: Humanized; full-length IgG; see note of AB4-8; also called humanized AB 4-11
Regarding B10, the FACS signal in test [1] turned out to be 6390; in test [2] it was 9170; in test [4] it was 1230.

B11: AB4-8 (antibody, V domains shown)
VH: QVQLVQSGAEVKKPGASVKVSCKASGYTFTSYTMHWVRQAPGQGLEWMGYINPSSTYTHYIKKFKDRVTMTADTSTSTVYMELSSLRSEDTAVYYCSRGELGGFAYWGQGTLVTVSS
VL: DVVMTQSPLSLPVTLGQPASISCRSSQSLVHSDGNTYLNWYQQRPGQSPRLLIYKVSNRFSGVPDRFSGSGSGTDFTLKISRVEAEDVGVYYCSQSTHVPYTFGQGTKLEIK
notes: Humanized; full-length IgG; also called humanized AB 4-8
On to B11, for which the FACS signal in test [1] was 3120; in test [2], 7310; in test [4], 4700.

B12: AB4-7 (antibody, V domains shown)
VH: QVQLVQSGAEVKKPGASVKMSCKASGYTFTSYTMHWIRQAPGQGQEWIGYINPSSTYTHYAQKFQGRATLTADKSTSTAYMELSSLRSEDTAVYYCSRGELGGFAYWGQGTLVTVSS
VL: DVVMTQSPLSLPVTLGQPASISCRSSQSLVHSDGNTYLNWYQQRPGQSPRLLIYKVSNRFSGVPDRFSGSGSGTDFTLKISRVEAEDVGVYYCSQSTHVPYTFGQGTKLEIK
notes: Humanized; also called humanized AB 4-7
For B12, the FACS signal in test [1] is 2770; in test [2], 7560; in test [4], 6640.

B13: AB4-chim (antibody, V domains shown)
VH: QVQLQQSGAELARPGASVKMSCKASGYTFTSYTMHWIKQRPGQGQEWIGYINPSSTYTHYIKKFKDKATLTADKSSSTAYMQLRSLTSEDSAVYYCSRGELGGFAYWGQGTLVTVSA
VL: DVVMTQTPLSLPVSLGDQASISCRSSQSLVHSDGNTYLNWYLQKPGQSPKLLIYKVSNRFSGVPDRFSGSGSGTDFTLKIRRVEAEDLGVYFCSQSTHVPYTFGGGTKLEIK
notes: Parental antibody prior to humanization ('chim'); also called pre-humanized form of AB4
Turning to B13, the values for the FACS signal in test [1], in test [2] and in test [3] were 19100, 38400 and 64800, respectively.
